The values that follow come from patent publication US20250346646A1, “COMPOUNDS USEFUL TO TREAT METABOLIC DISORDERS” (President and Fellows of Harvard College, priority 2016, published 2025).

For one experiment, the target named is human glucagon receptor (Homo sapiens, UniProt P47871). Briefly: cAMP-response element luciferase reporter in CHO-K1 cells expressing human GCGR-GFP. It is filed as cell-based. Conditions: CHO-K1 human GCGR cAMP reporter. On the procedure: Bar graphs represent mean±standard deviation (s.d.), n=4-5 per group. *P<0.05, **P<0.01, ***P≤0.001, ****P≤0.0001, ns P>0.05. Multiple group comparisons were done using one-way ANOVA statistics with Tukey post-test correction. Graphs show data as mean±standard error of mean (s.e.m.), analyzed using two-way ANOVA.
human glucagon receptor, sequence (P47871 26-477): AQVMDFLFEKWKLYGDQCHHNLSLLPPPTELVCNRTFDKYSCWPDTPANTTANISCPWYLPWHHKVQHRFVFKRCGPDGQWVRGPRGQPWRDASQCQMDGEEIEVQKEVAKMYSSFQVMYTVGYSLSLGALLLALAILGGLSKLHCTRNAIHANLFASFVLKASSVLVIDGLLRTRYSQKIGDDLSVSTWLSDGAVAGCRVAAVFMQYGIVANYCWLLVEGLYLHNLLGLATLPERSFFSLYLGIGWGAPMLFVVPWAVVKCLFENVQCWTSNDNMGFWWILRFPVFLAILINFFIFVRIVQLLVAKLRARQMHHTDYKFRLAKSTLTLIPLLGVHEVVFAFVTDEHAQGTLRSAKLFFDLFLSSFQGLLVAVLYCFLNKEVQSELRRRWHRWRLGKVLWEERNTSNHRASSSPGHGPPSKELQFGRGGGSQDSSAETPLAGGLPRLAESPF
During cloning hexahistadine and WELQ protease site was added for protein purification. Murine aP2 gene was cloned into pet21+ vector after the hexahistadine tag and TEV protease site for ease of purification.
Plasmids were transfected using Lipofectamine (Invitrogen) according to manufacturer's instructions. Transiently transfected cells were grown in appropriate selection antibiotics where applicable for stable cell line generation. Following three passages under selection media, single cell colonies were picked and expanded for experimentation after validation.
Background: Reporter assays use an easily measured gene product as a stand-in for the process of interest.

In a further experiment the target is T1, GCGR-ecd (Homo sapiens, UniProt P47871).
T1 construct: GCGR extracellular domain was cloned into pFastBac shuttle vector; hexahistidine; WELQ protease site; made in house; host or cells: baculovirus expression system (pFastBac)
T1 sequence (P47871 26-136 limits assumed): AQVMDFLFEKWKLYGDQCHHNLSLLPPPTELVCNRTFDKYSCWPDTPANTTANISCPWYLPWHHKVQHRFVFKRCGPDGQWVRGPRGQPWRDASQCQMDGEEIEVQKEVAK
The experiment can be described thus: Biolayer interferometry: GCGR-ecd binding to biotin-glucagon with or without aP2. As to conditions: BLITZ biolayer interferometry. (In general: In BLI a coated tip is dipped into the sample, and binding shifts an interference pattern.)

The target in another experiment is biotin-glucagon (Homo sapiens, UniProt P01275). The experiment can be described thus: Bio-Layer Interferometry: aP2 binding to biotin-glucagon. Conditions: read-out: Kdapp aP2 / biotinylated glucagon; biolayer interferometry, 25° C., PBS.
biotin-glucagon, sequence (P01275 53-81 limits assumed): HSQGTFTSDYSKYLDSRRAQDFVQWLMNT
In another experiment the target is glucagon (Homo sapiens, UniProt P01275). The experiment can be described thus: Microscale thermophoresis, binding to glucagon. As to conditions: read-out: Kd, binding to glucagon; MST. For orientation: In MST a laser heats a spot of the sample, and binding alters the fluorescence response.
The test system of a further experiment is aP2 knockout mice. The experiment can be described thus: Glucagon response of aP2 knockout mice given aP2, with or without CA33 preincubation. Conditions: CA33 preincubated with aP2. It is filed as in vivo, mouse. An excerpt:
Mouse and rabbit-mouse hybrid monoclonal antibodies raised against the human and mouse aP2 peptides were produced and screened. […] The systemic improvement in glucose metabolism was further verified using a glucose tolerance test (GTT).

The test system of experiment [1] is G6Pc and Pck1 expression in primary hepatocytes. Briefly: Gluconeogenic gene expression (G6Pc, Pck1) in primary hepatocytes. As to conditions: glucagon 100 nM plus recombinant aP2, vs glucagon alone. The format is cell-based, mouse.
The next experiment deals with primary hepatocytes. Briefly: De-novo glucose production in primary hepatocytes. It is filed as cell-based, mouse. As to conditions: 4 hours stimulation, aP2 with glucagon. An excerpt:
(§1) Bar graphs represent mean±standard deviation (s.d.), n=4-5 per group. *P≤0.05, **P≤0.01, ***P≤0.001, ****P≤0.0001, ns P>0.05. Multiple group comparisons were done using one-way ANOVA statistics with Tukey post-test correction.

The subject of experiment [2] is HepG2-C3A human hepatoma cell line. The experiment can be described thus: Glycogenolysis (14C-glucose release) in HepG2-C3A cells. It is filed as cell-based. Conditions: 24 hours stimulation, aP2 with glucagon.
Text: as §1

Experiment [3] relates to aP2 deficient mice. Briefly: Hyper-insulinemic-pancreatic clamp in aP2 deficient mice. It is filed as in vivo, mouse. Conditions: insulin 3 mU/kg/min, vs vehicle.
Text: Multiple group comparisons under clamp conditions were done using one-way ANOVA statistics with Tukey post-test correction. Basal and clamp conditions between groups were compared using repeated measures two-way ANOVA with Sidak correction. Graphs show data as mean s.e.m.
Experiment [4] concerns aP2 deficient mice. The experiment can be described thus: Glucagon injection test (glycaemia) in aP2 deficient mice. Conditions: 4-hour food withdrawal.
Text: Graphs show data as mean s.e.m. Experiments were repeated at least three times with similar results.
One-way ordinary ANOVA, with Tukey correction was used for multiple group comparisons. Experiments were repeated at least three times with similar results.
The subject of experiment [5] is mice with diet induced obesity. Briefly: Glucagon challenge test in mice with diet induced obesity. It is filed as in vivo, mouse. As to conditions: HFD 20 weeks; 33 mg/kg i.p. twice a week for 3 weeks; 150 μg/kg glucagon after 4-hour fast; vs vehicle. On the procedure: Mice were fed high fat diet for 20 weeks prior to the experiment. Starting from the 20th week, mice were injected with vehicle or anti-aP2 mAb at a dose of 33 mg/kg injected i.p. twice a week for 3 weeks.

B1: aP2: adipocyte lipid binding protein (aP2), also known as fatty-acid binding protein 4 (FABP4), recombinant (protein)
chain: MCDAFVGTWKLVSSENFDDYMKEVGVGFATRKVAGMAKPNMIISVNGDLVTIRSESTFKNTEISFKLGVEFDEITADDRKVKSIITLDGGALVQVQKWDGKSTTIKRKRDGDKLVVECVMKGVTSTRVYERA
For B1, the “Increase of glucagon potency by aP2 addition” value with human glucagon receptor is listed as “more than one order of magnitude”. In addition, the “Change of dissociation constant of glucagon to GCGR-ecd on addition of aP2” value with GCGR-ecd is given as “an order of magnitude decrease”. The Kd with biotin-glucagon was 2340 nM; with glucagon, ~214 nM. Moreover, in the experiment on aP2 knockout mice, the “Glucagon responsiveness of aP2 knockout mice” value is recorded as “rescues glucagon unresponsiveness”. In addition, the “Expression of gluconeogenic genes” value in experiment [1] is “further increased”. The Hepatic glucose production entry with primary hepatocytes is listed as “increased”. In experiment [2], the Glycogenolysis result is on record as “increased”. For the same molecule, the “Hepatic glucose production / counterregulatory response to insulin” value in the experiment on aP2 deficient mice [3] is “not seen”. The “Glycaemia response (glucagon responsiveness)” value in the experiment with aP2 deficient mice [4] was “little to no-response”.

B2: anti-aP2 mAb: anti-aP2 monoclonal antibody of Example 4, identity not stated (probably CA33) (antibody, V domains shown)
VH: QSVEESGGRLVTPGTPLTLTCTVSGFSLSTYYMSWVRQAPGKGLEWIGIIYPSGSTYCASWAKGRFTISKASTTVDLKITSPTTEDTATYFCARPDNDGTSGYLSGFGLWGQGTLVTVSS
VL: DVVMTQTPASVSEPVGGTVTIKCQASEDISRYLVWYQQKPGQPPKRLIYKASTLASGVPSRFKGSGSGTDFTLTISDLECDDAATYYCQCTYGTYAGSFFYSFGGGTEVVVE
As for B2, in experiment [5], the “Response to glucagon injection (glucose levels)” value is “significantly lower response”.
